Earlier results on one molecule are cited in article PMC6151437, “Antibacterial Synthetic Peptides Derived from Bovine Lactoferricin Exhibit Cytotoxic Effect against MDA-MB-468 and MDA-MB-231 Breast Cancer Cell Lines” (Molecules : A Journal of Synthetic Chemistry and Natural …, 2017).

The series relates to HT-29 cells. More on the design: method as in PMID 24140317. The conditions noted are these: maximum effects at 12 h of treatment.

B1: BLF: Bovine lactoferrin, a milk protein (protein, UniProt P24627 20-708, looked up)
Lactotransferrin: APRKNVRWCTISQPEWFKCRRWQWRMKKLGAPSITCVRRAFALECIRAIAEKKADAVTLDGGMVFEAGRDPYKLRPVAAEIYGTKESPQTHYYAVAVVKKGSNFQLDQLQGRKSCHTGLGRSAGWIIPMGILRPYLSWTESLEPLQGAVAKFFSASCVPCIDRQAYPNLCQLCKGEGENQCACSSREPYFGYSGAFKCLQDGAGDVAFVKETTVFENLPEKADRDQYELLCLNNSRAPVDAFKECHLAQVPSHAVVARSVDGKEDLIWKLLSKAQEKFGKNKSRSFQLFGSPPGQRDLLFKDSALGFLRIPSKVDSALYLGSRYLTTLKNLRETAEEVKARYTRVVWCAVGPEEQKKCQQWSQQSGQNVTCATASTTDDCIVLVLKGEADALNLDGGYIYTAGKCGLVPVLAENRKSSKHSSLDCVLRPTEGYLAVAVVKKANEGLTWNSLKDKKSCHTAVDRTAGWNIPMGLIVNQTGSCAFDEFFSQSCAPGADPKSRLCALCAGDDQGLDKCVPNSKEKYYGYTGAFRCLAEDVGDVAFVKNDTVWENTNGESTADWAKNLNREDFRLLCLDGTRKPVTEAQSCHLAVAPNHAVVSRSDRAAHVKQVLLHQQALFGKNGKNCPDKFCLFKSETKNLLFNDNTECLAKLGGRPTYEEYLGTEYVTAIANLKKCSTSPLLEACAFLTR
As to B1, the “optimal concentration for cytotoxic activity and apoptosis” value was 800 µg/mL.
